Among the data in the Immune Epitope Database (IEDB) are Kd and IC50 values, retold here.

In test [1] the target is HLA-A*02:01. In words: IEDB peptide-MHC binding, purified MHC/competitive/radioactivity; filed as Kd, often an IC50 or EC50 that approximates it; ≥ and ≤ were set here for values at or beyond the usual limits of such assays.
The target of test [2] is HLA-A*02:03. The description is as above.
The target in test [3] is HLA-A*02:17. The description is as above.
The target in test [4] is HLA-A*03:01. Briefly: IEDB peptide-MHC binding, purified MHC/competitive/fluorescence; ≥ and ≤ were set here for values at or beyond the usual limits of such assays.
For test [5], the target named is HLA-A*11:01. The test is described as above.
The target in test [6] is HLA-B*18:01. Briefly: IEDB peptide-MHC binding, purified MHC/competitive/radioactivity; filed as Kd, often an IC50 or EC50 that approximates it; ≥ and ≤ were set here for values at or beyond the usual limits of such assays.
Test [7] has as its target HLA-B*40:01. The test is described as above.
Test [8] deals with HLA-B*40:02. The description is as above.
Test [9] concerns the target HLA-B*44:02. The description is as above.
The target in test [10] is HLA-B*44:03. The test is described as above.
The target of test [11] is HLA-B*45:01. The test is described as above.
Test [12] concerns the target HLA-B*07:02. In words: IEDB peptide-MHC binding, purified MHC/competitive/fluorescence; filed as Kd, often an IC50 or EC50 that approximates it; ≥ and ≤ were set here for values at or beyond the usual limits of such assays.
The target in test [13] is HLA-B*35:01. The description is as above.
Test [14] addresses HLA-B*39:01. The test is described as above.
Test [15] has as its target HLA-B*51:01. Described as above. To be noted: source organism: Yersinia pestis Nepal516.
Test [16] concerns the target HLA-A*02:01. Briefly: IEDB peptide-MHC binding, purified MHC/competitive/fluorescence; ≥ and ≤ were set here for values at or beyond the usual limits of such assays. To be noted: source organism: Zaire ebolavirus.
In test [17] the target is HLA-A*24:02. The description is as above. Conditions: source organism: Zaire ebolavirus.
The target in test [18] is HLA-B*15:01. The test is described as above. To be noted: source organism: Zaire ebolavirus.
The target of test [19] is HLA-A*24:02. In words: IEDB peptide-MHC binding, purified MHC/competitive/fluorescence; filed as Kd, often an IC50 or EC50 that approximates it; ≥ and ≤ were set here for values at or beyond the usual limits of such assays.
Test [20] deals with HLA-A*02:06. In words: IEDB peptide-MHC binding, purified MHC/competitive/radioactivity; filed as Kd, often an IC50 or EC50 that approximates it; ≥ and ≤ were set here for values at or beyond the usual limits of such assays.
The target of test [21] is HLA-B*08:01. Described as above.
Test [22] has as its target HLA-B*15:01. The description is as above.
Test [23] deals with HLA-A*31:01. In words: IEDB peptide-MHC binding, purified MHC/competitive/fluorescence; filed as Kd, often an IC50 or EC50 that approximates it; ≥ and ≤ were set here for values at or beyond the usual limits of such assays. To be noted: source organism: Salmonella enterica subsp. enterica serovar Typhimurium str. LT2.
The target in test [24] is HLA-A*68:02. Briefly: IEDB peptide-MHC binding, purified MHC/competitive/radioactivity; filed as Kd, often an IC50 or EC50 that approximates it; ≥ and ≤ were set here for values at or beyond the usual limits of such assays. Conditions: source organism: Dengue virus 4 Philippines/H241/1956.
For test [25], the target named is HLA-A*30:01. The test is described as above. Conditions: source organism: Vaccinia virus WR.
Test [26] concerns the target HLA-A*32:01. Described as above. To be noted: source organism: Vaccinia virus WR.
Test [27] addresses HLA-B*15:03. The test is described as above. Conditions: source organism: Vaccinia virus WR.
In test [28] the target is HLA-B*44:02. Briefly: IEDB peptide-MHC binding, purified MHC/direct/fluorescence; filed as Kd, often an IC50 or EC50 that approximates it; ≥ and ≤ were set here for values at or beyond the usual limits of such assays. Conditions: source organism: Dengue virus 1 Singapore/S275/1990.
Test [29] concerns the target HLA-B*15:42. In words: IEDB peptide-MHC binding, purified MHC/competitive/fluorescence; filed as Kd, often an IC50 or EC50 that approximates it; ≥ and ≤ were set here for values at or beyond the usual limits of such assays. To be noted: source organism: dengue virus type 1.
Test [30] deals with HLA-B*45:06. The test is described as above. Conditions: source organism: dengue virus type 1.
In test [31] the target is HLA-B*83:01. The test is described as above. To be noted: source organism: dengue virus type 1.
Test [32] has as its target HLA-A*11:01. The description is as above. To be noted: source organism: Homo sapiens.
[33] abbreviates: source organism: Dengue virus 3 China/80-2/1980.
Setting [34] is: source organism: Sudan ebolavirus.
Where [35] appears, read: source organism: Zaire ebolavirus.
Where [36] appears, read: source organism: Mammarenavirus lassaense.
Where [37] appears, read: source organism: Dengue virus 1 Singapore/S275/1990.
[38] abbreviates: source organism: Dengue virus 1 Brazil/97-11/1997.
The mark [39] stands for this setting: source organism: Yersinia pestis Nepal516.
Setting [40] is: source organism: SARS coronavirus Tor2.
Where [41] appears, read: source organism: Dengue virus 4 Philippines/H241/1956.
Where [42] appears, read: source organism: Mammarenavirus whitewaterense.
[43] abbreviates: source organism: Dengue virus 2 Thailand/NGS-C/1944.
The mark [44] stands for this setting: source organism: Dengue virus 2 Jamaica/1409/1983.
Where [45] appears, read: source organism: Influenza A virus H3N2.
Setting [46] is: source organism: Mammarenavirus juninense.
Where [47] appears, read: source organism: Vaccinia virus.
Where [48] appears, read: source organism: Vaccinia virus WR.
[49] abbreviates: source organism: Salmonella enterica subsp. enterica serovar Typhi.

Take ALFSGVSWI: the values for the Kd in [1] (setting [33]), in test [2] (source organism: Dengue virus 3 Singapore/8120/1995) and in test [3] (setting [33]) were 0.51 nM, 1.58 nM and 483 nM, respectively.
AQHSTTLFK: the half-inhibitory concentration (IC50) came out at 30000 nM in [4] (setting [34]) and 994 nM in test [5] (setting [34]).
As for ATTTSPQNH, the half-maximal inhibitory concentration (IC50) worked out at 37700 nM in [4] (setting [35]) and 1910 nM in [5] (setting [35]).
As for FDAATTGSL, the dissociation constant (Kd) in [6] (setting [36]) is no less than 38900 nM; in [7] (setting [36]) it was 16600 nM; in test [8] (setting [36]) it was 2290 nM; in [9] (setting [36]), no less than 22200 nM; in test [10] (setting [36]), no less than 44600 nM; in test [11] (setting [36]) it was 14400 nM.
With FLAHAIGTSI, the Kd in test [1] (setting [37]) was 8.19 nM; in test [2] (setting [38]) it was 46.7 nM; in test [3] (setting [37]), 1.85 nM.
FPVAMLSCL: the Kd was 15.7 nM in test [12] (setting [39]), no more than 0.1 nM in test [13] (setting [39]), 18.5 nM in test [14] (setting [39]) and 186 nM in test [15].
With HEGHQTAAF, the Kd is 4270 nM in test [6] (setting [40]); 2980 nM in test [7] (setting [40]); 2810 nM in test [8] (setting [40]); 1120 nM in [9] (setting [40]); 4750 nM in test [10] (setting [40]); no less than 26200 nM in test [11] (setting [40]).
Consider ILMNFHQKK, for which the half-maximal inhibitory concentration (IC50) in test [16] was found to be 2470 nM; in test [4] (setting [35]), 808 nM; in test [5] (setting [35]), 163 nM; in test [17] it was 9840 nM; in [18] it was 69400 nM.
Regarding IYLNEVNTF, in test [19] (source organism: Vibrio splendidus 12B01), the dissociation constant (Kd) was no more than 0.1 nM.
On to KEQYCALSPG, for which the Kd in test [6] (setting [40]) is no less than 70500 nM; in test [7] (setting [40]), 4670 nM; in [8] (setting [40]) it was 831 nM; in test [9] (setting [40]), 2610 nM; in test [10] (setting [40]), 3460 nM; in [11] (setting [40]), 259 nM.
KLLTKPWDV: in test [3] (setting [41]), the Kd was found to be 379 nM.
For KLSSTNQLR, the results for the half-maximal inhibitory concentration (IC50) in test [16], in test [4] (setting [35]) and in [5] (setting [35]) were no less than 196000 nM, 6870 nM and 2460 nM, respectively.
As to LEITDVTTL, the dissociation constant (Kd) was 462 nM in test [6] (setting [42]); 127 nM in [7] (setting [42]); 80.1 nM in [8] (setting [42]); 25.7 nM in test [9] (setting [42]); 61.8 nM in test [10] (setting [42]); no less than 77700 nM in [11] (setting [42]).
Take LLVLCVTQV: the Kd in test [1] (setting [43]) was 64.9 nM; in [2] (source organism: Dengue virus 2 Peru/IQT2913/1996), 38.4 nM; in test [3] (setting [43]), no less than 5000 nM.
As for LMMATIGIAL, the equilibrium dissociation constant (Kd) in test [1] (setting [44]) amounted to 11.2 nM; in [2] (setting [44]), 8.92 nM; in test [20] (setting [44]), 13.6 nM; in test [3] (setting [44]) it was 171 nM; in test [21] (setting [44]), 398 nM; in [22] (setting [44]) it was 6.5 nM.
In turn, LYNKMEFEPF showed a Kd in test [19] (setting [45]) of 3.3 nM.
For MVGIVHFNK, the equilibrium dissociation constant (Kd) in test [19] (source organism: Salmonella enterica subsp. enterica serovar Typhimurium str. LT2) worked out at 42.9 nM; in [23], 90 nM.
MVIGMAMTTV: the Kd in test [1] (setting [41]) was 9.36 nM; in test [2] (setting [41]) it was 0.14 nM; in test [20] (setting [41]), 5.3 nM; in test [3] (setting [41]) it was 132 nM; in test [24], 3.27 nM.
PDSCLNGKL: the Kd was no less than 20100 nM in test [6] (setting [46]); no less than 67900 nM in [7] (setting [46]); no less than 77200 nM in test [8] (setting [46]); no less than 77900 nM in [9] (setting [46]); no less than 78100 nM in test [10] (setting [46]); no less than 25600 nM in [11] (setting [46]).
As for QLQQYAESR, the IC50 was no less than 240000 nM in [4] (setting [35]) and 18700 nM in test [5] (setting [35]).
Sequence RARIKTRLFTI had an equilibrium dissociation constant (Kd) in test [12] (source organism: Influenza A virus (A/X-31(H3N2))) of 733 nM.
Regarding RMKWMMAM, the Kd in test [12] (setting [45]) is 3250 nM.
RNKLSYRNK: the IC50 is 45100 nM in test [4] (setting [47]) and no less than 90400 nM in test [5] (setting [47]). Further, the Kd in test [25] was 63.9 nM; in test [26], no less than 44000 nM; in test [21] (setting [48]) it was no less than 61500 nM; in test [22] (setting [48]), no less than 29500 nM; in test [27] it was 16400 nM.
As for SEMGANFRA, the Kd in [28] was no less than 37700 nM; in test [29], no less than 5000 nM; in [30] it was no less than 5000 nM; in test [31], no less than 5000 nM; in [10] (setting [38]) it was 48.9 nM.
SFFYRYGF returned a Kd in test [19] (source organism: Influenza A virus (A/Fort Monmouth/1/1947-mouse adapted(H1N1))) of 35.7 nM.
For the sequence SKSMRDQRK, the concentration for half-maximal inhibition (IC50) is no less than 246000 nM in test [4] (source organism: Variola virus) and 21100 nM in test [5] (source organism: Variola virus).
For the sequence TLAVFLLLI, the equilibrium dissociation constant (Kd) amounted to 2590 nM in test [1] (setting [37]) and 1840 nM in [3] (setting [37]).
As for TMTLWYMWQV, the values for the Kd in test [1] (setting [41]), in test [20] (setting [41]) and in [3] (setting [41]) were 28.8 nM, 74.5 nM and 433 nM, respectively.
As to WPDVFSVSV, the Kd in [12] (setting [49]) came out at 65.7 nM; in [13] (setting [49]), 1.3 nM; in test [14] (setting [49]) it was 3.8 nM.
YILWENNIKL: the Kd in test [1] (setting [33]) amounted to 5.85 nM; in test [3] (setting [33]) it was 10.1 nM.
Take YLDDRNTFR: in [32], the Kd was no less than 20000 nM.
In the case of YYLLFYPTI, the Kd in test [19] (source organism: Bacillus thuringiensis str. Al Hakam) is no more than 0.1 nM.

A word on the Kd: it is the equilibrium constant for the complex coming apart. As usually defined, the IC50 is the concentration that gives 50% inhibition.
